Each block holds one molecule with its values, some of them ahead of it.
How the values were obtained:
[1] = biological target: Glucokinase (Homo sapiens) (UniProt P35557); details: cited from earlier work
[2] = biological target: T1, rat liver glucokinase regulatory protein (rat, UniProt Q07071 1-627); experiment: crystal structure
T1 sequence: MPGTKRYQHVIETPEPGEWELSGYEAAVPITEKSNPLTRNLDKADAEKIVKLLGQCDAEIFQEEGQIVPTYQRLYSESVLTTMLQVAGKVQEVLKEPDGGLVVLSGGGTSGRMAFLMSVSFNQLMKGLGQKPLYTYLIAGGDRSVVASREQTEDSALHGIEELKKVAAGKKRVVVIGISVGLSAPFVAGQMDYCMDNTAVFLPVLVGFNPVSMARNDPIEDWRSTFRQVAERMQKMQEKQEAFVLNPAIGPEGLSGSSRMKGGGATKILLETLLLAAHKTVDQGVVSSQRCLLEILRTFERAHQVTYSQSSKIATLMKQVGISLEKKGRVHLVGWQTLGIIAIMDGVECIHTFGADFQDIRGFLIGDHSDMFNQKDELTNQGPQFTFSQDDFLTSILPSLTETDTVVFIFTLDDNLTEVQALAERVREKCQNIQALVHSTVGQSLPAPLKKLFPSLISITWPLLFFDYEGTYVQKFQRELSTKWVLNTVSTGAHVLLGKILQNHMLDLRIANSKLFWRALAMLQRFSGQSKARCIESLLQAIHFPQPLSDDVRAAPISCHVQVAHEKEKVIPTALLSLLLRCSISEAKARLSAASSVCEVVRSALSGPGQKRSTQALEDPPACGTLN

Molecule: GKRP (from UniProt Q07071)
- Kd [1]: 1 µM

- binding result [2]: binds
B1: human pancreatic glucokinase (enzyme)
chain: DDRARMEAAKKEKVEQILAEFQLQEEDLKKVMRRMQKEMDRGLRLETHEEASVKMLPTYVRSTPEGSEVGDFLSLDLGGTNFRVMLVKVGEGEEGQWSVKTKHQMYSIPEDAMTGTAEMLFDYISECISDFLDKHQMKHKKLPLGFTFSFPVRHEDIDKGILLNWTKGFKASGAEGNNVVGLLRDAIKRRGDFEMDVVAMVNDTVATMISCYYEDHQCEVGMIVGTGCNACYMEEMQNVELVEGDEGRMCVNTEWGAFGDSGELDEFLLEYDRLVDESSANPGQQLYEKLIGGKYMGELVRLVLLRLVDENLLFHGEASEQLRTRGAFETRFVSQVESDTGDRKQIYNILSTLGLRPSTTDCDIVRRACESVSTRAAHMCSAGLAGVINRMRESRSEDVMRITVGVDGSVYKLHPSFKERFHASVRRLTPSCEITFIESEEGSGRGAALVSAVACKKACMLGQ
